Measurements: article PMC4474691, “Leukemia-Associated Mutations in Nucleophosmin Alter Recognition by CRM1: Molecular Basis of Aberrant Transport” (PLoS ONE, 2015)

target: CRM1^HA (high affinity mutant of CRM1) (UniProt Q6P5F9); experiment: ITC; TFP-NES, YFP-NES or NES peptides at 35–180 μM titrated onto CRM1^HA at 2–14 μM; 20°C; 20 mM HEPES pH 7.4, 50 mM NaCl, 1 mM TCEP, 1 mM MgCl2; independent binding sites model

Substance	Kd [nM]	dH [kcal/mol]	stoichiometry N
TFP-mutA(NES) (domain or fragment)	2380	-14.5	0.54
TFP-mutE(NES) (domain or fragment)	1040	-15.4	0.8
YFP-PKI(NES) (domain or fragment)	18	-13.7	1.01
peptide AL (long NES motif of NPM mutant A, with Ile284)	57	-18.1	0.33
peptide EL (long NES motif of NPM mutant E, with Ile284)	31	-19.8	0.51
peptide ES (short NES motif of NPM mutant E)	76	-20.8	0.4
